In the DeepSol protein solubility set:

assay: soluble on expression in E. coli; label from the status in PepcDB or PDB records

Sequence	soluble on expression in E. coli
MAERAALEELVKLQGERVRGLKQQKASAELIEEEVAKLLKLKAQLGPDESKQKFVLKTPKGTRDYSPRQMAVREKVFDVIIRCFKRHGAEVIDTPVFELKETLMGKYGEDSKLIYDLKDQGGELLSLRYDLTVPFARYLAMNKLTNIKRYHIAKVYRRDNPAMTRGRYREFYQCDFDIAGNFDPMIPDAECLKIMCEILSSLQIGDFLVKVNDRRILDGMFAICGVSDSKFRTICSSVDKLDKVSWEEVKNEMVGEKGLAPEVADRIGDYVQQHGGVSLVEQLLQDPKLSQNKQALEGLGDLKLLFEYLTLFGIDDKISFDLSLARGLDYYTGVIYEAVLLQTPAQAGEEPLGVGSVAAGGRYDGLVGMFDPKGRKVPCVGLSIGVERIFSIVEQRLEALEEKIRTTETQVLVASAQKKLLEERLKLVSELWDAGIKAELLYKKNPKLLNQLQYCEEAGIPLVAIIGEQELKDGVIKLRSVTSREEVDVRREDLVEEIKRRTGQPLCIC	soluble
EEKVVAEQQADGTWLMDGWISIRKASNLLEHDLVDEAERYSTLGGYLLWQFGYIPAAGEQITVDGLIFEIVSVNKHNIGKVRVHRTQ	soluble
MGSDKIHHHHHHVALLQDELKIRKIHELLHMKLALPPYQRPYSWSVKSANTLFQDTYNAYHEGLQEYRVGSVILHKENGKYNIVDGQQRLTTISILLYCLGEKDLGLLQEKYNQLSNDVIVTNYEILSKRISELPKDEQNKYKNYLFERCSVVQIVTDSEQEAFQFFDSQNSRGKELTPHDLLKSYHLREMNDEEENQKIRIINQWENVNQDDLNDLFKIYLYPLTQWYKGKSGLGYSSSKIDVFKGIKTTNVFNYAIYHKASNLFVEQFNANGSNELLASRALNQFQLTQPLMAGKRFFYYTLHYRNLLEQVQRLVSKVHTEEQVPSRRTGDLYIKQLYECALLFFADRFGIENLSKAVMQQLYTWSYSLRLVMEAVYLQTINKYVRGEHERVNYGLGMFSEISEMKNGEELKLISLEQPKIENKNKEKYRDVYDLLCEWNRW	not soluble
MGSDKIHHHHHHMYYISLNVKRRKLNKDNNYNEFLTDPIYSRLIENVEKLKDKVFHLSKIVNLQAYMEGFTFYTSSNYRSTPIDVIPRIITSELFFKISNYLVARSYVLNKFIREVYQEGSNPIPDWIVKTTPYFRPEMMGFSPPKDIYIHVYGADIVRVNGVPFILEDNLRIPSGISYSYKAFEYVDRFLPELKEGYDNRVLQINGLDYLYDILRYVSGNKDPIIVILTDGNYNSAYFEHKFISEKLGIILAEPNDIYVKDKEVVVRTVDEGEVHVDVIYRRIEDLDYLTPGLMKAYLRGWVTLANAPGTGVADDKATFVWIPYLAEKYGIKLENVIQPYTICLYEKENLEKVITQPTRYVIKKREGYGGIGLAIVKDDNINVLKEIYKEYENFIAQEVLDFDTVISVVNDSFYETYADMRIFTYYDKVASAVLSRVGIMGSRITNNSSGGMVKPLWIIK	not soluble
MIATPNILAPLHDILPLTKGEARISFIGSRSFLLEAPGEFDLPAQRWIWALSQSVSNWPDVAEIIPGMTNLLTIFKETPDDPDSVVGRLRDAWNSAQSLDLTGKTIEIPVHYGGEYATDLAAICDFSGLSDREVVRLHHEATYRVFALGSAPGFGYLHGLDPRIYMPRKTVPSIRMEKGCVTIGGMQTGVAMLTGPNGWNSIGYADLQMFDPESSVPALMAPGDIVRFVPARIELLEHHHHHH	not soluble
METGGGAPLTKSSEAVEGDFVEDRLRGNEAFRRGNYEAAASYYSEALEKIRLAKTELPTQDRYPWSLEEVLIRCNRALVFLRLASAAALPNVGSNRFEEDACTAEHESEEATPCSLWQRAAEDASVALDLITDFEDEGESERVTELRVKALYRRMVANKGQNNFADAAKDAEALAKIRPEYRSEAELLAQRAAAESERAKQEALQKLKEVGNSFLSLFGVSIDNFQTKRNPDGTYSVSYCPKS	not soluble
MAEKRTVRPFAGTERRAKGWIQEAALRMLNNNLHPDVAERPDELIVYGGIGKAARNWECYEAIVDTLLRLENDETLLIQSGKPVAVFRTHPDAPRVLIANSNLVPAWATWDHFHELDKKGLIMYGQMTAGSWIYIGSQGIVQGTYETFAEVARQHFGGTLAGTITLTAGLGGMGGAQPLAVTMNGGVCLAIEVDPARIQRRIDTNYLDTMTDSLDAALEMAKQAKEEKKALSIGLVGNAAEVLPRLVETGFVPDVLTDQTSAHDPLNGYIPAGLTLDEAAELRARDPKQYIARAKQSIAAHVRAMLAMQKQGAVTFDYGNNIRQVAKDEGVDDAFSFPGFVPAYIRPLFCEGKGPFRWVALSGDPEDIYKTDEVILREFSDNERLCHWIRMAQKRIKFQGLPARICWLGYGERAKFGKIINDMVAKGELKAPIVIGRDHLDSGSVASPNRETEGMKDGSDAIADWPILNALLNAVGGASWVSVHHGGGVGMGYSIHAGMVIVADGTKEAEKRLERVLTTDPGLGVIRHADAGYELAIRTAKEKGIDMPMLK	soluble
MDNRSASLHSDIDTVLNNYDYDFAEVEIAVLGNGHINNTYKLTTPEVEFVLQQINHDVFPKTAELSSNAQKINLHLQRQKNIGNYPLSIPQQILSKTGETYSKVGTNYWRLMEFISNSYTLEEVESPEQAALVANAFAEFSCTLSDFPVEELAVIIEDFHDISFRMRQLNEAVENDLQDRLSSCQTLVNFCLDQQDFINHVIDISKKLPLHVTHNDTKINNLLFTEGDTPCAVIDLDTCMPGLLMHDFGDMVRTCCSNLAEDDTNIDAMIIKLDIFSALIQSYQNAFGTKMSALEKDSLIVGTKSVPFSLGTRFLTDYLNGDSYFQVSREKHNLDRAFNQIQLFILLCEAEPELIKLAMQALEHHHHHH	not soluble
MGSVRKASAWLGLVDDNDDERYYDDDYAEGQESGEAWVTDPRVKVASETAEEKGRRIGTVTPDSFRDARGIGELFRDGVPVIINLTAMEPTDAKRVVDFAAGLTFGLRGTIERVATRVFLLTPANTEIVSGEAAGRPTDGFFNQSLEHHHHHH	not soluble
MGSSHHHHHHSSGRENLYFQGHMPCQPACPVSADTWAPSAVPDDYRYADLHLPQQVGQASLAAECAVAISYNGLNQAVMMASPEDIEDFVRGFSLSSGFVESIDDIYEIRVSGQGESLHAEVEISSRAFWNLKRQRRQLAGTSGCGLCGVEALEQALPQLPERSPQALPPAAHLGALRQRIEQAQRLARHSGALHAALYFDGHGELRLCREDIGRHNALDKLIGALHRQGLDAARGFAVVTSRCSLELIHKAVRAGIGTLVSLSAPTALTVQWARRHQLNLIHQPHHNAPRVYSPAPAATE	soluble
MGSDKIHHHHHHMIERIYLAKPRGFCAGVVMAIQAVEKAAVREDKPVTVYHSIVHNHTVVERLSEGGRVHFVEDLDAVDALPDSGDTVIFSAHGISPAVRERARSLGLSTIDATCPLVTKVHTEAKKYAREGYTILLIGDSAGHQEVIGTRGEAPENTILVGVLGKTGPGLNDPHAVQVPDPERLVVLTQTTLSVDDTRKTVDILKARFPALVVPPSEDLCYATKNRQDAVKNIAPNVDAFLVLTSTHSSNGMRLLELAEAECGRAYRLETAADLTRLEQNGDLGGVRSVGITSAASTPDDLVQDVVAHFRALNPALEVIEEGEWENIEFREPKKIAPTQELPRTMQ	not soluble
MSNRDQLFKAPPFENHSPLTWYQAASQLPNFIRDDAQAAAIEHLDRLWTELMMFKRKRNRFLGRSLRSPQVPKGLYFYGGVGRGKSFLMDAFFGCLPYRRKRRVHFHAFMAEIHQRLKTLKSESNPLKSVAAEIAKETRVLCFDEFHVSDIADAMILGRLLENLLNEGVVLVATSNYAPSELYPQGQNRSSFLPTIALIESSLTVLNVDGGEDYRLRTLRPAEIFFTPANEENEAKLAKLFKEMTGITDLNPGISTIHGREIPHKAESGRAIWFDFRALCFGPRSQSDYLYLAEHYEMVFISGLEQLSPQEKAEARRLTWLIDVLYDFRVKLCATGAVDVNHIYTEGDFAEEFTRTASRMVEMQSEVYLEQPHLTLSPKASGG	not soluble
MEEVMALSEPEQNTWINRPEYSEVSEDRIVIVSDANTDFWENTYYDFSHYTGHVYGKETESDFTFQVRVKADFSALYDQAGIFIGGTETAWIKAGIEFNDGQPSIGCVVTNNNSDWSTGLFPGNPGDFWMRVTSKSDVIRIQYSIDGKNWPLLRLCTWPGTRKRFIGVMCCSPKRKGLSAEFTEILLTTPLDSDLHDLSLEHHHHHH	soluble
MSLALAIFDLDETLIHGDCATLWSEQMGRLGWVDSESFMRRNHELMDAYSHGKLAMEEFMDFSLEPMSGRTPEEVAHLVEPWVEEVIEPIIFSDACKAIAAHRQAGDRILVISASGTHLVKPIAARLGIDEVLGIELEVQHGVYSGRTVGTLTYREGKITRLLQWLDAEEENLEGATFYSDSRNDLPLLLRVDHPQVVNPDPVLREHAQKAGWPIHHWKEGHHHHHH	soluble
MKKLAFAVTVASGAAAVIANHEADASTQHTVKSGESLWSISQQYGVSVDEIKQSNDINNNMVFPGQVIEIGGSSSQESGSTSNNTSNGSSHTVQSGESLNIIANQYGVSVDEIIAANNLNGYLIHPNQTLTIPGTTGTGGSGGTATETPSSNTGGSTASDANLYDWGQCTWHVFNRRAETGQPISTYWWNADHWANNASADGYTVNNAPTAGSIMQNYEGPVGHVAYVERVNPDGSILISEMNYNTPPGTVDYRTIPASQASSYNYIHLEHHHHHH	not soluble
MGSDKIHHHHHHMNAPLSHSRPMMQPSEDKSLATVFPFAGRVLDETPMLLGEGPTFDPASGTAWWFNILERELHELHLASGRKTVHALPFMGSALAKISDSKQLIASDDGLFLRDTATGVLTLHAELESDLPGNRSNDGRMHPSGALWIGTMGRKAETGAGSIYHVAKGKVTKLFADISIPNSICFSPDGTTGYFVDTKVNRLMRVPLDARTGLPTGKAEVFIDSTGIKGGMDGSVCDAEGHIWNARWGEGAVDRYDTDGNHIARYEVPGKQTTCPAFIGPDASRLLVTSAREHLDDDAITANPQHGLTFELGIEVKGRFEPLYRL	soluble
MTTPNPLAKTKGAGTTFWMYTGNGDAFANPLSDTDWLRLAMVKDLQPGEMTADAEDDTYLDDEDADWKTTTQGQKSVGDTSATLACRPGDSGQKKLVQLFDSGEVCAFRIKYPNGTVDVFRGWLSSLGKTIASKDVMTRTVKISGVGRPYLAEEGTETVGVTGLTVAPASVSVKAGATTTLTFTVKPDGASDKAISVHSSDPQTASVTLSGLVATVKGVKQGSVSIVGMTSDGEFVAVAAVTVSAP	not soluble
MLVGNIVKEVLAYKKGQIQQKLSSPQAFVSSRFQEKLQSEPAKETKGTTQLAKVEDMSQPVQSTKIETVVNKPEQSIHKVEEASKPEEKAETKNVDEVQVAQKEFERRFPETKNEAADTWGLTKKYNIQKIRSSNEGKYEDIIDRVSHTYGIPKTLIQKMIEVESDFNPKTVSHAGAKGLMQLMPANVKEMGIKNPFSPAESIEGGVKELSGYLKKNNGDLVLALASYNAGPGNVRKYGGVPPFKETQGYIKKILNIDVSK	not soluble
GPEAERAEMLAWFDRINAERRRAGMVAVLTRRCNLACPYCFEGGQAPEGDMSEETADLLAAMIEREYLAKGWRVDMDFYGGEPLLRPDLIRRIAEPLRAAGGGLFHGNMVSNGSLLNRAVMTDLTALGIESVKVTLDGPPQVHDRYRPYGGGAGSFHDILRGMGEVVDLVKIHVGGNFTRETWREYPALLDLLLAEGFTPDRLGTVRFTP	not soluble
MGSDKIHHHHHHMDMTFKLQVFEGPLDLLLYLIEKNKVNIYDIPIVEITAQYMEYVNQMKKDNLDTLSEFLVMAATLLDIKSKMLLPKKEEEEQEQEDPRAELVQQLLEYKMYKCMANELKDRQLDAGKVWYKKKDIPDEVLAYEEPVNLEELVGDIRLSDLNRIFQSIMKRQEEKIDKVRSKFGKIEKEEVSLEEKMEYLTDYAASHKHFSFRGMLTASSSKVEVIVTFLAILELMKTGKLTIVQEHIFDDIRIESRIAA	not soluble
